{
  "source": "paper PMC10269683",
  "molecular_target": "CcpA (Streptococcus pneumoniae D39) (UniProt A0A0H2ZQ65)",
  "test": "EMSA",
  "conditions": "EMSA: 10 mM Tris-HCl pH 7.4, 1 mM DTT, 1 mM EDTA, 50 mM KCl, 5% glycerol, 50 ug/mL BSA, 0.05% NP-40, 20 min 37 C; footprinting binding 30 min 25 C",
  "data": [
    {"sequence": "GCTACAAACTGTTCCAATTTAACTGTGTTTTTCATAATAAAATCTCCTAAAATGTTTTTTCTTGTAAGCTAACTTACAAAAACCATTATACAAAATGGAATTTCGTTTTAGATAAAATTCTCTCAACTGTCATTTTTTTCTCCCAAAGTGTACTTTTTTAAGAAAAAAGCCGGGAAAATTCCCAGCTTTGCTATTATATTGATCCCAGCAGGATTCGAACCTGCGACCGTTCGCTTAGAAGGCGAATGCTCTATC (double strand) [P240 (PcomCDE)]", "values": [
      {"measurement": "binding", "value": "binds"}
    ]}
  ]
}
